In patent US20250263490A1 (VIB VZW, published 2025):

Tests used:
[1] = target: T1, recombinant human domain 1-3His6 of the cation-independent mannose-6-phosphate receptor (human, UniProt P11717 41-467); test: BLI exp 2, dissoc pH not printed (between 6 and 5, presumably 5.5)
T1 construct: Biotinylated (NHS-PEG4-biotin) for BLI; Glycosylated; also called hDom1-3His6; hCI-M6PRD1-D3
Method: (§1) For each of the 11 anti-CI-M6PR VHHs, a biolayer interferometry (BLI) experiment was performed in which the hDom₁₋₃His₆ was biotinylated and coupled to streptavidin biosensor tips. Afterwards, the tips were incubated with serially diluted VHHs during the association phase and dissociation was performed at pH 7.4. Similarly, dissociation was performed at pH 7.0, pH 6.0 and pH 5.0 as well after regeneration of the biosensor tips. […] The anti-CI-M6PR antibody (clone 2G11) and GBP were used as positive and negative controls, respectively.
Analysis of the binding kinetics was performed using an Octet Red96 (FortéBio) device with Streptavidin SA Biosensor tips (VWR, 733-2145). To this end, 1 mL of hCI-M6PR_D1-D3 (0.5 mg/mL in 50 mM MES, 150 mM NaCl, pH 6.5) was incubated at room temperature for 30 minutes with a two-fold molar excesses of EZ-Link™ NHS-PEG₄-Biotin (Thermo Fischer, A39259) and NaHCO₃ (100 mM, pH 8.3). Biotinylated hCIMPR_D1-D3 was purified using a Zeba spin desalting column (Thermo Fischer, 89890) and protein concentration was calculated by measuring the absorbance at 280 nm (extinction coefficient 50320 M¹ cm⁻¹). Two-fold biotin-labelled antigen was loaded on the tips (2.5 μg/mL) and subsequently dipped into a particular anti-CI-M6PR VHH-containing solution (ranging from 0-100 nM). […]

[2] = target: T1, recombinant human domain 1-3His6 of the …; test: BLI, dissoc pH 5.5, mean of local fits
Method: FIGS. 58 & 59. […] BLI was performed on an Octet Red96 (FortéBio) instrument in kinetics buffer (0.2 M Na₂HPO₄, 0.1 M Na⁺ citrate, 0.01% bovine serum albumin, 0.002% Tween-20). Biotinylated human domain₁₋₃His₆ was immobilized on Streptavidin SA biosensors (Sartorius) to a signal of 0.6 nm. […] Between assays, biosensors were regenerated by three times 10 s exposure to regeneration buffer (10 mM glycine pH 3). The degree of association and dissociation was measured in δ nm over time (s).
After loading, the tips were incubated with VHHs serially diluted in pH 7.4 kinetic buffer during the association phase and dissociation was performed at pH 7.4, pH 6.5, pH 6.0, pH 5.5 and pH 5.0. All biosensor tips were then regenerated before analysis of the subsequent VHH. Table 13 summarizes the kinetic parameters retrieved after processing and curve fitting of the BLI measurements. When both association and dissociation were performed at pH 7.4, a global fit was performed according to the 1:1 binding model of which the resulting affinity constants (KD), association (kₒₙ) and dissociation rate constants (koff) are shown. For measurements with association at pH 7.4 and dissociation at pH 6.5, 6.0, 5.5 and 5.0, the depicted dissociation rate constants are an average of the parameters determined by local curve fitting of the dissociation of 200, 100 and 50 nM VHH.

[3] = target: T1, recombinant human domain 1-3His6 of the …; test: BLI at pH 7.4, 1st of 2 repeats; BLI, biotinylated hDom1-3His6 on streptavidin tips, pH 7.4, experiment 1
Method: as §1
Analysis of the binding kinetics was performed using an Octet Red96 (FortéBio) device with Streptavidin SA Biosensor tips (VWR 733-2145). Therefore, 1 mL of human domain₁₋₃His₆ (0.5 mg/mL in 50 mM MES, 150 mM NaCl, pH 6.5) was incubated at room temperature for 30 minutes with EZ-Link™ NHS-PEG4-Biotin (1 mg) (Thermo Fischer A39259) and NaHCO₃ (100 mM). Biotinylated human domain₁₋₃His₆ was purified using a Zeba spin desalting Column™ (7K MWCO, 2 mL, Thermo Fischer 89890) and 1 μg/mL was used for immobilization on the Streptavidin SA Biosensor tips. The loaded tips were dipped into a particular anti-CI-M6PR VHH solution, serially diluted in kinetics buffer (0.2M NaH₂PO₄, 0.1M Na⁺ citrate, 0.01% BSA, 0.002% Tween20, pH 7.4). This was followed by dissociation of the particular anti-CI-M6PR VHH in kinetics buffer of pH 7.4, followed by regeneration in Glycine (10 mM, pH 3) and neutralisation. Same cycle was repeated but the dissociation was performed at pH 7.0, 6.0, 5.0, 4.5 and 4.0. A reference well and reference sensors were subtracted from ligand sensors afterwards and Savitsky-Golay filtering was applied on the data. Fitting of the data was performed using a 1:1 model, grouped per pH of dissociation.

[4] = target: T1, recombinant human domain 1-3His6 of the …; test: BLI at pH 7.4, 2nd of 2 repeats; BLI, biotinylated hDom1-3His6 on streptavidin tips, pH 7.4, experiment 2

B1: anti-CI-M6PR VHH5 (VHH)
VHH: QVQLQESGGGLVQAGGSLKLSCAAAGRTFSRLAMGWFRQAPGKEREFVAAISENGDSIHYSDSVKGRFAVSRDNAKNTVYLQMNSLKPEDTAIYYCAADRAAYYCSGSGCYPSRAPAAASYDYWGQGTQVTVSS
notes: His6-tagged; made in Pichia pastoris, later also in E. coli WK6
koff [1]: 0.00062 s⁻¹ | kon [1]: 2.1e+06 M⁻¹ s⁻¹

B2: anti-CI-M6PR VHH 1H11 (VHH)
VHH: QVQLQESGGGLVQPGGSLRLSCAASGIIFSDNRMDWYRQAPGKQREWVATLASYGWKTYADSVKDRFTISRDNAKNTVNLYMNSLQPEDTAVYYCNSGQYWGQGTQVTVSS
notes: made in E. coli WK6, His-tag purified
koff [2]: 0.0063 s⁻¹

B3: anti-CI-M6PR VHH4 (VHH)
VHH: QVQLQESGGGLVQAGGSLRLSCAASGRTFSNYVMGWFRQAPGKEREFVGSISQGGKMTYYPDSVKGRFTISRDNAKNTMYLQMDGLKPEDTAVYYCAVSRGYPMVRVSEVDYWGQGTQVTVSS
notes: His6-tagged; made in Pichia pastoris
Kd [3]: 2.33 nM | koff [3]: 0.00133 s⁻¹ | kon [3]: 571000 M⁻¹ s⁻¹ | Kd [4]: 2.34 nM | kon [4]: 571000 M⁻¹ s⁻¹
